Assay results reported in PMC6572841, “Structural basis for the inhibition of translation through eIF2α phosphorylation” (Nature Communications, 2019).

T1: eIF2Bε (Saccharomyces cerevisiae, UniProt P32501 1-712)
T1 construct: eIF2Bε, S. cerevisiae; Subunit of m2 as it stood in the eIF2B-eIF2(αP) complex; the ε-cat HEAT domain was not included in any model; also called eIF2B ε subunit; source: over-expressed in S. cerevisiae strain GP4109, purified as part of Flag-tagged eIF2B
T1 sequence: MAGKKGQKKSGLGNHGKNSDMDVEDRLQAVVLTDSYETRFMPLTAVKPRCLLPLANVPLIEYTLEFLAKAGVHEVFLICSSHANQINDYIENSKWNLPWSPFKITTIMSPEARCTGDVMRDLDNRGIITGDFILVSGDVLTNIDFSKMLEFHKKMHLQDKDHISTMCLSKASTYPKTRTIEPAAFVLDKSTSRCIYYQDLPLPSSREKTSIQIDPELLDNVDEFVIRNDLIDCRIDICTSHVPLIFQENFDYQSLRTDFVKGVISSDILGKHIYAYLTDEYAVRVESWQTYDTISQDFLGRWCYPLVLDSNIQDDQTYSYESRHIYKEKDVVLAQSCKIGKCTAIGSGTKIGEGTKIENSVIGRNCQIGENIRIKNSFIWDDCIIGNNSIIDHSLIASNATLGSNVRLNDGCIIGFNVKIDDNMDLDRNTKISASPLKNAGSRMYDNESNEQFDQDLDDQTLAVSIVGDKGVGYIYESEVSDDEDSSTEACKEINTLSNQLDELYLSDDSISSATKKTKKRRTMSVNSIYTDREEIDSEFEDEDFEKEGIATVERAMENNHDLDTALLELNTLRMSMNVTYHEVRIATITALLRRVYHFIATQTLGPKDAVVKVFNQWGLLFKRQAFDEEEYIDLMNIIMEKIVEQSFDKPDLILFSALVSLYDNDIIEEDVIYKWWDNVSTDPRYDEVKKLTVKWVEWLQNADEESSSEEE

T2: eIF2Bβ (Saccharomyces cerevisiae, UniProt P32502 1-381)
T2 construct: eIF2Bβ, S. cerevisiae; Subunit of m2 as it stood in the eIF2B-eIF2(αP) complex; also called eIF2B β subunit; source: over-expressed in S. cerevisiae strain GP4109, purified as part of Flag-tagged eIF2B
T2 sequence: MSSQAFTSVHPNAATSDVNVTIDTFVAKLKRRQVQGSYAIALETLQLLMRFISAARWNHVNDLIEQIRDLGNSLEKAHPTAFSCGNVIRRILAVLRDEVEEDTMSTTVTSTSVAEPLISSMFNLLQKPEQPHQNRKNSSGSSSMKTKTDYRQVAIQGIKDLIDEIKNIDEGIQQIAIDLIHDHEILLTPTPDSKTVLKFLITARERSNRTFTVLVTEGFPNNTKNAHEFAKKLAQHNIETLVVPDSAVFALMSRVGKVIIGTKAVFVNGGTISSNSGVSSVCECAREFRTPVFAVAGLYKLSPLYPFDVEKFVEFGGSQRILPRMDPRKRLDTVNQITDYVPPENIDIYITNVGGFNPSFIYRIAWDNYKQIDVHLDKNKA

T3: eIF2Bδ (Saccharomyces cerevisiae, UniProt P12754 1-651)
T3 construct: eIF2Bδ, S. cerevisiae; Subunit of m2 as it stood in the eIF2B-eIF2(αP) complex; also called eIF2B δ subunit; source: over-expressed in S. cerevisiae strain GP4109, purified as part of Flag-tagged eIF2B
T3 sequence: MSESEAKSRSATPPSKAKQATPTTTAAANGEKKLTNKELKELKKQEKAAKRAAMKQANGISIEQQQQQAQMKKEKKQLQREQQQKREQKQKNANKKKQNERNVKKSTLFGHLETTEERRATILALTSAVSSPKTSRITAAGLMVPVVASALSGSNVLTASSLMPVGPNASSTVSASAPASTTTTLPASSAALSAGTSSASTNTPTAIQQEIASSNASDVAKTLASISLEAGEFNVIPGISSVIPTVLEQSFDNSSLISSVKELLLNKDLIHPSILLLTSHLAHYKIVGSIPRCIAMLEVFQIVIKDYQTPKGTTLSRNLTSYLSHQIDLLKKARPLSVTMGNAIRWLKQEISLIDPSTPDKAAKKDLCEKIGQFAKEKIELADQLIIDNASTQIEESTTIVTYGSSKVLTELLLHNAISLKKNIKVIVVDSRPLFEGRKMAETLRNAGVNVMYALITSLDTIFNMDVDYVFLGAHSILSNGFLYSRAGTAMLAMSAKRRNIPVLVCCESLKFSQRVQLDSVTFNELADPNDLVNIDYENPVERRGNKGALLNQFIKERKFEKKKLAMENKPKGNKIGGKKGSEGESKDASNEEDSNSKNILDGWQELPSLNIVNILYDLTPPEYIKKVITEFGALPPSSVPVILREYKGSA

B1: eIF2Bγ (natural protein, Saccharomyces cerevisiae)
chain: MSIQAFVFCGKGSNLAPFTQPDFPFQTQNKDSTAATSGDKLNELVNSALDSTVINEFMQHSTRLPKALLPIGNRPMIEYVLDWCDQADFKEISVVAPVDEIELIESGLTSFLSLRKQQFELIYKALSNSNHSHHLQDPKKINFIPSKANSTGESLQKELLPRINGDFVILPCDFVTDIPPQVLVDQFRNRDDNNLAMTIYYKNSLDSSIDKKQQQKQKQQQFFTVYSENEDSERQPILLDVYSQRDVTKTKYLQIRSHLLWNYPNLTVSTKLLNSFIYFCSFELCQLLKLGPQSMSRQASFKDPFTGNQQQQNPPTTDDDEDRNHDDDDDYKPSATSIQPTYFKKKNDLILDPINCNKSLSKVFRDLSRRSWQHSKPREPIGIFILPNETLFIRANNLNAYMDANRFVLKIKSQTMFTKNIQIQSAAIGADAIVDPKCQISAHSNVKMSVLGTQANIGSRCRVAGSLLFPGVHLGDEVILENCIIGPMAKIGSKCKLSNCYIEGHYVVEPKNNFKGETLANVYLDEDEEDELIYDDSVIAGESEIAEETDSDDRSDEDSDDSEYTDEYEYEDDGLFER
notes: eIF2Bγ, S. cerevisiae; Subunit of m2 as it stood in the eIF2B-eIF2(αP) complex; also called eIF2B γ subunit; source: over-expressed in S. cerevisiae strain GP4109, purified as part of Flag-tagged eIF2B
B2: eIF2Bα (natural protein, Saccharomyces cerevisiae)
chain: MSEFNITETYLRFLEEDTEMTMPIAAIEALVTLLRIKTPETAAEMINTIKSSTEELIKSIPNSVSLRAGCDIFMRFVLRNLHLYGDWENCKQHLIENGQLFVSRAKKSRNKIAEIGVDFIADDDIILVHGYSRAVFSLLNHAANKFIRFRCVVTESRPSKQGNQLYTLLEQKGIPVTLIVDSAVGAVIDKVDKVFVGAEGVAESGGIINLVGTYSVGVLAHNARKPFYVVTESHKFVRMFPLSSDDLPMAGPPLDFTRRTDDLEDALRGPTIDYTAQEYITALITDLGVLTPSAVSEELIKMWYD
notes: eIF2Bα, S. cerevisiae; Subunit of m2 as it stood in the eIF2B-eIF2(αP) complex; also called eIF2B α subunit; source: over-expressed in S. cerevisiae strain GP4109, purified as part of Flag-tagged eIF2B

Key:
Test in all cases: cryo-EM structure; eIF2(αP) with 2 mM GDP added to Flag-tagged eIF2B immobilised on Anti-Flag M2 gel, eluted with 3XFlag-peptide; 20 mM Hepes (pH 7.5), 100 mM KCl, 5 mM MgCl2, 5 mM β-ME; diluted to ~200 nM with 0.1% glutaraldehyde; six maps, 4.2 to 10.4 Å
Conditions in all cases: both partners purified
eIF2Bε = molecular target: T1, eIF2Bε
eIF2Bα = molecular target: B2
eIF2Bβ = molecular target: T2, eIF2Bβ
eIF2Bδ = molecular target: T3, eIF2Bδ
eIF2Bγ = molecular target: B1

Row | Binder | binding result (eIF2Bε) | binding result (eIF2Bβ) | binding result (eIF2Bγ) | also measured
1 | B1 | binds | – | – | –
2 | eIF2α phosphorylated at Ser51 (natural protein, Saccharomyces cerevisiae, UniProt P20459 1-304, looked up, phosphoserine at 51 (52 sequence numbering); measured by mass spectrometry to be 89.4%, eIF2α, S. cerevisiae; Subunit of m1 as it stood in the eIF2B-eIF2(αP) complex; also called eIF2(αP) α subunit; source: purified from S. cerevisiae strain GP3511 as part of eIF2; phosphorylated in vitro by human PKR (Invitrogen)) MSTSHCRFYENKYPEIDDIVMVNVQQIAEMGAYVKLLEYDNIEGMILLSELSRRRIRSIQKLIRVGKNDVAVVLRVDKEKGYIDLSKRRVSSEDIIKCEEKYQKSKTVHSILRYCAEKFQIPLEELYKTIAWPLSRKFGHAYEAFKLSIIDETVWEGIEPPSKDVLDELKNYISKRLTPQAVKIRADVEVSCFSYEGIDAIKDALKSAEDMSTEQMQVKVKLVAAPLYVLTTQALDKQKGIEQLESAIEKITEVITKYGGVCNITMPPKAVTATEDAELQALLESKELDNRSDSEDDEDESDDE | – | binds | – | binding result (eIF2Bα): binds; binding result (eIF2Bδ): binds
3 | eIF2γ (natural protein, Saccharomyces cerevisiae, UniProt P32481 1-527, looked up, eIF2γ, S. cerevisiae; Subunit of m1 as it stood in the eIF2B-eIF2(αP) complex; also called eIF2 γ subunit; source: purified from S. cerevisiae strain GP3511 as part of eIF2) MSDLQDQEPSIIINGNLEPVGEPDIVEETEVVAQETQETQDADKPKKKVAFTGLEEDGETEEEKRKREFEEGGGLPEQPLNPDFSKLNPLSAEIINRQATINIGTIGHVAHGKSTVVRAISGVQTVRFKDELERNITIKLGYANAKIYKCQEPTCPEPDCYRSFKSDKEISPKCQRPGCPGRYKLVRHVSFVDCPGHDILMSTMLSGAAVMDAALLLIAGNESCPQPQTSEHLAAIEIMKLKHVIILQNKVDLMREESALEHQKSILKFIRGTIADGAPIVPISAQLKYNIDAVNEFIVKTIPVPPRDFMISPRLIVIRSFDVNKPGAEIEDLKGGVAGGSILNGVFKLGDEIEIRPGIVTKDDKGKIQCKPIFSNIVSLFAEQNDLKFAVPGGLIGVGTKVDPTLCRADRLVGQVVGAKGHLPNIYTDIEINYFLLRRLLGVKTDGQKQAKVRKLEPNEVLMVNIGSTATGARVVAVKADMARLQLTSPACTEINEKIALSRRIEKHWRLIGWATIKKGTTLEPIA | – | – | binds | –
4 | eIF2β (natural protein, Saccharomyces cerevisiae, UniProt P09064 1-285, looked up, eIF2β, S. cerevisiae; Subunit of m1 as it stood in the eIF2B-eIF2(αP) complex; also called eIF2 β subunit; source: purified from S. cerevisiae strain GP3511 as part of eIF2) MSSDLAAELGFDPALKKKKKTKKVIPDDFDAAVNGKENGSGDDLFAGLKKKKKKSKSVSADAEAEKEPTDDIAEALGELSLKKKKKKTKDSSVDAFEKELAKAGLDNVDAESKEGTPSANSSIQQEVGLPYSELLSRFFNILRTNNPELAGDRSGPKFRIPPPVCLRDGKKTIFSNIQDIAEKLHRSPEHLIQYLFAELGTSGSVDGQKRLVIKGKFQSKQMENVLRRYILEYVTCKTCKSINTELKREQSNRLFFMVCKSCGSTRSVSSIKTGFQATVGKRRRM | binds | – | binds | –
5 | B2 | – | binds | – | –
